Series [1] addresses T1, vGalDH (synthetic construct, UniProt Z9D058OTD2).
T1 construct: SUMO cleaved for crystals; noncovalent FAD
T1 sequence (Z9D058OTD2 110-619): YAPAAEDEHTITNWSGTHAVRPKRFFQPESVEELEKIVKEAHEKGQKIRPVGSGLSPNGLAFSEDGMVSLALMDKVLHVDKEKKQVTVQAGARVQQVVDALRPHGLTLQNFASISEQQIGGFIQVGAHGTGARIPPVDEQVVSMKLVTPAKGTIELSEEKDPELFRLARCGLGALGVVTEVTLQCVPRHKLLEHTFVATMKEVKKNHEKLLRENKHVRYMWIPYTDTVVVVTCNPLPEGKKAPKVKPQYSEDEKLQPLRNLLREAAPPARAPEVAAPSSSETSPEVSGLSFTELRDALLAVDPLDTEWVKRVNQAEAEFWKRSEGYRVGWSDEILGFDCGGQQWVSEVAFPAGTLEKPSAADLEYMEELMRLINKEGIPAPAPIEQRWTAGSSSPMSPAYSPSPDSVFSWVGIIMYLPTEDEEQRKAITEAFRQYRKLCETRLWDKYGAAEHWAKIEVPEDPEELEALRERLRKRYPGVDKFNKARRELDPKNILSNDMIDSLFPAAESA
The series is described as follows: cytochrome c reduction at […] nm, Michaelis-Menten fit. The series is classed as biochemical. Conditions: 50 μM equine cytochrome c, 50 mM potassium phosphate pH 8, 25 °C.

Substrate in series [2]: O=C1O[C@H](CO)[C@@H](O)[C@@H]1O
The series is described as follows: oxygen consumption (Oxygraph), Michaelis-Menten fit. It is filed as biochemical, synthetic construct. The following applies: oxygen as co-substrate, 50 mM potassium phosphate pH 8, 25 °C. An excerpt:
(§1) oxygen consumption (Oxygraph), Michaelis-Menten fit on cGULO

Substrate in series [3]: O=C1O[C@H]([C@@H](O)CO)[C@@H](O)[C@@H]1O
Described as above. It is filed as biochemical, synthetic construct. The following applies: oxygen as co-substrate, 50 mM potassium phosphate pH 8, 25 °C.
Text: as §1

Substrate in series [4]: O=C1O[C@H]([C@@H](O)CO)[C@H](O)[C@@H]1O
The series is described as above. The series is classed as biochemical, synthetic construct. The following applies: oxygen as co-substrate, 50 mM potassium phosphate pH 8, 25 °C.
Text: as §1

Substrate in series [5]: O=C1O[C@H](CO)[C@@H](O)[C@@H]1O
Described as above. The series is classed as biochemical, synthetic construct. Conditions: oxygen as co-substrate, 50 mM potassium phosphate pH 8, 25 °C. How it is done: (§2) oxygen consumption (Oxygraph), Michaelis-Menten fit on tGULO | KM values in the sub-millimolar range were measured for mGULO and tGULO | also L-galactono-1,4-lactone (i.e.: GalDH substrate; Fig. 1A) and D-arabino-1,4-lactone (ALO substrate) are effectively oxidized
The source holds these as a separate data set.

Substrate in series [6]: O=C1O[C@H]([C@@H](O)CO)[C@@H](O)[C@@H]1O
The series is described as above. The following applies: oxygen as co-substrate, 50 mM potassium phosphate pH 8, 25 °C. It is filed as biochemical, synthetic construct. The protocol:
as §2
This is another data set of the same source.

Substrate in series [7]: O=C1O[C@H]([C@@H](O)CO)[C@H](O)[C@@H]1O
Described as above. The following applies: oxygen as co-substrate, 50 mM potassium phosphate pH 8, 25 °C. The series is classed as biochemical, synthetic construct. The protocol: as §2
The source holds these as a separate data set.

Substrate in series [8]: O=C1O[C@H](CO)[C@@H](O)[C@@H]1O
The description is as above. It is filed as biochemical, synthetic construct. The following applies: oxygen as co-substrate, 50 mM potassium phosphate pH 8, 25 °C. An excerpt:
(§3) oxygen consumption (Oxygraph), Michaelis-Menten fit on mGULO
This is another data set of the same source.

Substrate in series [9]: O=C1O[C@H]([C@@H](O)CO)[C@@H](O)[C@@H]1O
The series is described as above. It is filed as biochemical, synthetic construct. Conditions: oxygen as co-substrate, 50 mM potassium phosphate pH 8, 25 °C.
Text: as §3
The source holds these as a separate data set.

Substrate in series [10]: O=C1O[C@H]([C@@H](O)CO)[C@H](O)[C@@H]1O
Described as above. The series is classed as biochemical, synthetic construct. The following applies: oxygen as co-substrate, 50 mM potassium phosphate pH 8, 25 °C.
Text: as §3
The source holds these as a separate data set.

Substrate in series [11]: O=C1O[C@H](CO)[C@@H](O)[C@@H]1O
The description is as above. Conditions: oxygen as co-substrate, 50 mM potassium phosphate pH 8, 25 °C. The series is classed as biochemical, synthetic construct. The source holds these as a separate data set.

Substrate in series [12]: O=C1O[C@H]([C@@H](O)CO)[C@@H](O)[C@@H]1O
The series is described as above. The following applies: oxygen as co-substrate, 50 mM potassium phosphate pH 8, 25 °C. It is filed as biochemical, synthetic construct. This is another data set of the same source.

Substrate in series [13]: O=C1O[C@H]([C@@H](O)CO)[C@H](O)[C@@H]1O
Described as above. The series is classed as biochemical, synthetic construct. The following applies: oxygen as co-substrate, 50 mM potassium phosphate pH 8, 25 °C. This is another data set of the same source.

For orientation: Km means the concentration of substrate that gives half-maximal velocity. Consider `O=C1O[C@H]([C@@H](O)CO)[C@@H](O)[C@@H]1O` [L-galactono-1,4-lactone], for which the Km in series [1] stood at 16.6 ± 2.6 µM.

As to `O=C1O[C@H](CO)[C@@H](O)[C@@H]1O` [D-arabino-1,4-lactone], the Km in series [1] is 1100 ± 100 µM.

As for `O=C1O[C@H]([C@@H](O)CO)[C@H](O)[C@@H]1O` [L-gulono-1,4-lactone], the Michaelis constant (Km) in [1] was 2100 ± 300 µM.

B1: cGULO (synthetic construct) (protein)
chain: MATGMKGYKFTNWAKTYSCQPELYFEPTTTEEIRQILELARQHSKRVKVVGCGHSPSDIACTTDYMISMKKFNKVLEVDKEKCQVTVQAGILLKDLNEELPKHGMALSNLGAVSDITVAGVISTGTHGTGVNYGILATHVVELTLMTASGEILKCSREENKDIFLAALCGLGALGIILTVTIQCEPAFKLHQKQFPCTLDEVLDNLDTHLKSSEHFRFMWFPHTDHVVVFHANRTDKPVQSTSSWFWDYLVGYYLLEFLLWISTFFPSLVPWINRFFFWLLYSQPKERVDRSDKVFNFECLFKQYVTEWAIPREKTAAVLLELKDWLESNPDFHAHFPVEVRFVRADDIYLSPCYQRDSCYINIIMYRPYGKDVPREKYWAAYEDIMMKVGGRPHWAKAHKVTAKDFQKMYPKFEKFCSIREKLDPQGMFLNSYLERVFF
notes: His-SUMO fusion from pBAD in E. coli; membrane-associated, purified in reduced Triton X-100; covalent FAD
As a reminder, the kcat is the number of substrate molecules converted per active site and unit of time at saturation. The kcat/Km is the turnover number divided by the Michaelis constant. On to B1, for which, in [2], the Km was found to be 48600 ± 24000 µM, the turnover number (kcat) worked out at 0.6 ± 0.1 s⁻¹ and the kcat/Km came to 12.3 M⁻¹ s⁻¹. Moreover, in series [3], the Michaelis-Menten constant (Km) amounted to 11800 ± 1200 µM, the kcat is 3.5 ± 0.3 s⁻¹ and the specificity constant (kcat/Km) was 300 M⁻¹ s⁻¹. Besides, in series [4], the Km was 6100 ± 700 µM, the catalytic constant (kcat) worked out at 3.2 ± 0.1 s⁻¹ and the specificity constant (kcat/Km) was 520 M⁻¹ s⁻¹.

B2: tGULO (synthetic construct) (protein)
chain: MVQGHGGYKFQNWAQTYGCSPELYFQPTSVEEIKEILDLARQRSKRVKVVGGGHSPSDIACTDDFMIHMNKMNKILKVDKEKKQVTVEAGILLSDLNEELSKHGLALSNLGAVSDVAAAGVIGTGTHNTGIQHGILATQVVALTLMTASGEILECSESVNAELFQAARLHLGCLGVILTVTFQCVPAFHLQETQFPSTLKEVLDNLDSHLKKSEYFRFLWFPHTENVSVIYQDRTDKPPSSSANWFWDYAIGYYLLEFLLWISTFLPRLVPWINRFFFWLLYSGKVERVNLSYKVFNYECRFKQHVQDWAIPIEKTKEALLELKAWLESNPKVVAHFPVEVRFARGDDILLSPCYQRDSCYMNIIMYRPYGKDVPRQQYWLAYENIMKKVGGRPHWAKAHTCTRKDFEKMYPGFQKFCSIREKLDPTGMFLNTYLEKVFY
notes: as for B1
For B2, the Km in [5] was 9400 ± 900 µM; in series [6], 5400 ± 1200 µM; in [7], 800 ± 200 µM. Besides, the turnover number (kcat) in series [5] is 2.9 ± 0.1 s⁻¹; in series [6], 1.3 ± 0.1 s⁻¹; in [7], 7.3 ± 0.5 s⁻¹.

B3: mGULO (synthetic construct) (protein)
chain: MVHGHKGVKFQNWAKTYGCSPEMYFQPTSVEEIREVLDLARQQNKRVKVVGGGHSPSDIACTDGFMIHMGKMNRILKVDKEKKQVTVEAGILLADLNVELSKHGLALSNLGAVSDVTAAGVIGTGTHNTGIKHGILATQVVALTLLTASGTILECSESSNAELFQAARVHLGCLGVILTVTFQCVPQFHLQETSFPSTLKEVLDNLDSHLKKSEYFRFLWFPHSENVSVIYQDHTNKPPSSSANWFWDYAIGFYLLEFLLWISTFLPCLVPWINRFFFWLLFTGKVENSNLSYKIFNYECRFKQHVQDWAIPIEKTKEALLELKAMLESNPKVVAHYPVEVRFTRGDDILLSPCFQRDSCYMNIIMYRPYGKDVPRLDYWLAYETIMKKVGGRPHWAKAHTCTRKDFEKMYPAFQKFCAIREKLDPTGMFLNAYLEKVFY
notes: His-SUMO fusion from pBAD in E. coli (tag kept in stopped-flow); membrane-associated, purified in reduced Triton X-100; covalent FAD
For the molecule B3, in series [8], the Km was 3300 ± 400 µM, the turnover number (kcat) is 0.5 ± 0.1 s⁻¹ and the kcat/Km stood at 150 M⁻¹ s⁻¹. Further, in [9], the Michaelis constant (Km) was 1900 ± 200 µM, the kcat was found to be 4.2 ± 0.1 s⁻¹ and the kcat/Km amounted to 2200 M⁻¹ s⁻¹. Moreover, in series [10], the Michaelis constant (Km) came to 800 ± 100 µM, the catalytic constant (kcat) was 6.1 ± 0.1 s⁻¹ and the specificity constant (kcat/Km) was 7600 M⁻¹ s⁻¹.

B4: jGULO (synthetic construct) (protein)
chain: MVQGTEGYKFQNWAQTYSCQPELYFEPTSVEEIRQILELARQRSKRVKVVGCGHSPSDIACTDDYMIRMNKMNKILKVDKEKRQVTVEAGILLSDLNEELAKHGLALSNLGAVSDVTVAGVIGTGTHNTGIQHGILATQVVALTLMTASGEILECSESVNKEIFQAARLHLGALGVILTVTFQCEPAFRLHQQQFPSTLTEVLDNLDTHLKKSEYFRFLWFPHTDHVTVFYADRTDKPVQSTSSWFWDYAIGYYLLEFLLWISTFFPRLVPWINRFFFWLLYSAKVERVNRSDKVFNFECLFKQHVSDWAIPIEKTKAALLQLKEWLENNPDVRAHFPVEVRFVRADDILLSPCYQRDSCYINIIMYRPYGKDVPRERYWAAYEDIMKKVGGRPHWAKAHSCTRKDFEKMYPAFQKFCSIREKLDPSGMFLNTYLEKVFF
notes: as for B1
As to B4, the Michaelis-Menten constant (Km) in series [11] stood at 10700 ± 2500 µM; in series [12] it was 7100 ± 800 µM; in [13], 6900 ± 600 µM. Further, the catalytic constant (kcat) in series [11] was 2.9 ± 0.3 s⁻¹; in [12] it was 8.0 ± 0.3 s⁻¹; in series [13], 3.9 ± 1.3 s⁻¹.

These data come from publication PMC11099136, “Structure, mechanism, and evolution of the last step in vitamin C biosynthesis” (Nature Communications, 2024).
